For assay [1], the target named is T1, CD47 (human, UniProt Q08722 19-323).
T1 construct: whole, on cells; Species is stated as human for the transfected CHO line; also called human CD47; CHO.exCD47
Kind of assay: flow cytometry titration on CHO.exCD47 cells, anti-HIS ALEXA-488 detection, n=3.

Assay [2] deals with T2, CD33 (human, UniProt P20138 18-364).
T2 construct: whole, on cells; Species is stated as human for the transfected lines; also called human CD33; CHO.exCD33
Kind of assay: column 'KD MOLM-13': flow cytometry on MOLM-13 cells (CD33+ CD47+), KD as an avidity value. Background: A flow cytometer gives signals particle by particle.

For assay [3], the target named is T1, CD47. Kind of assay: cell-based or functional assay.
Assay [4] addresses T2, CD33. Kind of assay: flow cytometry titration on MOLM-13 cells (CD33+ CD47+), KD as an avidity value.
Assay [5] deals with T2, CD33. Put plainly: calibrated flow cytometry titration on MOLM-13 cells, KD as an avidity value. The protocol:
(§1) CD33 equilibrium binding constants (KD, as an avidity measurement) of the licMABs and mAb were determined by calibrated flow cytometry analyses as previously described (Benedict et al., 1997; J. Immunol. Methods; 201(2); 223-231). Briefly, MOLM-13 cells were incubated with licMABs or mAb in concentrations ranging from 0.01 to 15 μg/ml and stained with a FITC antiHuman IgG Fc (clone HP6017, BioLegend) secondary antibody by flow cytometry. The instrument was calibrated with 3.0-3.4 μm Rainbow Calibration particles of 8 peaks (BioLegend), the maximum MFI value was set to 100% and all data points were normalized accordingly. The assay was performed in quadruplicates and the values were analyzed by non-linear regression using a one-site specific binding model.

Assay [6] has as its target T2, CD33. Kind of assay: column 'KD MOLM-13': calibrated flow cytometry on MOLM-13 cells, KD as an avidity value. The protocol:
as §1

The target of assay [7] is T2, CD33. Kind of assay: calibrated flow cytometry titration on MOLM-13 cells, KD as an avidity value; panel 'KD determination of Fc-engineered licMABs'. The protocol:
as §1

T2 sequence (P20138 18-364): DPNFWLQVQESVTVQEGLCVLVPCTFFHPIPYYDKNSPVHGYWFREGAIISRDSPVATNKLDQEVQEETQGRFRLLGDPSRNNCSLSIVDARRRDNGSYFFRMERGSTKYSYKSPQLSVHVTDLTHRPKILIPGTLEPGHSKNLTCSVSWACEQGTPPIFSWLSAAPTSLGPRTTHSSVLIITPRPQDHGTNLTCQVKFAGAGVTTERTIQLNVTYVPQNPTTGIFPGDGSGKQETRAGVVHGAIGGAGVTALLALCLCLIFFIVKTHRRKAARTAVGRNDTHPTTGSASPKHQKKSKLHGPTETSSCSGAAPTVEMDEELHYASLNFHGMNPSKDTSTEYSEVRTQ

B1: SirpIg-SirpIg-anti-CD16-anti-CD33 liCAD (other)
chain: EEELQVIQPDKSVLVAAGETATLRCTATSLIPVGPIQWFRGAGPGRELIYNQKEGHFPRVTTVSDLTKRNNMDFSIRIGNITPADAGTYYCVKFRKGSPDDVEFKSGAGTELSVRAKPSGGGGSGGGGSGGGGSGGGGSEEELQVIQPDKSVLVAAGETATLRCTATSLIPVGPIQWFRGAGPGRELIYNQKEGHFPRVTTVSDLTKRNNMDFSIRIGNITPADAGTYYCVKFRKGSPDDVEFKSGAGTELSVRAKPSGGGGSGGGGSGGGGSGGGGSQVTLKESGPGILQPSQTLSLTCSFSGFSLRTSGMGVGWIRQPSGKGLEWLAHIWWDDDKRYNPALKSRLTISKDTSSNQVFLKIASVDTADTATYYCAQINPAWFAYWGQGTLVTVSAGGGGSGGGGSGGGGSGGGGSDTVLTQSPASLAVSLGQRATISCKASQSVDFDGDSFMNWYQQKPGQPPKLLIYTTSNLESGIPARFSASGSGTDFTLNIHPVEEEDTATYYCQQSNEDPYTFGGGTKLEIKGGGGSGGGGSGGGGSGGGGSDIQLTQSPSTLSASVGDRVTITCRASESLDNYGIRFLTWFQQKPGKAPKLLMYAASNQGSGVPSRFSGSGSGTEFTLTISSLQPDDFATYYCQQTKEVPWSFGQGTKVEVKGGGGSGGGGSGGGGSGGGGSEVQLVQSGAEVKKPGSSVKVSCKASGYTITDSNIHWVRQAPGQSLEWIGYIYPYNGGTDYNQKFKNRATLTVDNPTNTAYMELSSLRSEDTAFYYCVNGNPWLAYWGQGTLVTVSS
In the case of B1, the Kd with CD47 [1] is 21 nM; with CD33 [2], 30 nM; in the assay with CD33 [4], 30 nM. In the assay with CD47 [3], the “EC50 (concentration of half maximum lysis), redirected lysis of MOLM 13 cells by expanded PBMC effector cells, E:T 2:1, 4 h” value is 0.0015 nM.

B2: αCD33 mAB (antibody, human IgG1)
heavy: not shown
light: DIQLTQSPSTLSASVGDRVTITCRASESLDNYGIRFLTWFQQKPGKAPKLLMYAASNQGSGVPSRFSGSGSGTEFTLTISSLQPDDFATYYCQQTKEVPWSFGQGTKVEVKVAAPSVFIFPPSDEQLKSGTASVVCLLNNFYPREAKVQWKVDNALQSGNSQESVTEQDSKDSTYSLSSTLTLSKADYEKHKVYACEVTHQGLSSPVTKSFNRGEC
notes: Human IgG1/kappa (pFUSE-CHIg-hG1, pFUSE2-CLIg-hk); It was obtained from SIRPα-PreSc-antiCD33 by PreScission cleavage, so residues of the cleavage site may remain at the light chain N-terminus; also called antiCD33 mAb; anti-CD33 mAB (clone hP67.6)
For the molecule B2, the Kd with CD33 [5] and with CD33 [6] was 3 nM throughout.

B3: Fc-engineered variant of αCD33 mAB (antibody, human IgG1)
heavy: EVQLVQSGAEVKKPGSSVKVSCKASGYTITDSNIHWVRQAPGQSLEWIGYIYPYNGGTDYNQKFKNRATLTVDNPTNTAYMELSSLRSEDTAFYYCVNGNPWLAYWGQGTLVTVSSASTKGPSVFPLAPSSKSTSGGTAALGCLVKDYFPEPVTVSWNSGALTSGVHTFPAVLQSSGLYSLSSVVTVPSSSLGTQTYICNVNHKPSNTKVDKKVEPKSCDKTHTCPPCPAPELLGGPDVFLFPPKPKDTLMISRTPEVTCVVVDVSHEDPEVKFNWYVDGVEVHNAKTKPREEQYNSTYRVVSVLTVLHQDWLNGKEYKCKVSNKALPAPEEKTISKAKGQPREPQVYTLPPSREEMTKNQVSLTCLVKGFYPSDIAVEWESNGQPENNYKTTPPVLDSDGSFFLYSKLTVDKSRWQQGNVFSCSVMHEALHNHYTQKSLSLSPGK
light: B2 light
notes: Same as m7 with the Fc-engineered IgG1 constant region (S239D, I332E); also called Fc-engineered mAB
Take B3: the Kd with CD33 [7] and in the assay with CD33 [6] was 2 nM throughout.

The record behind these values is patent US20180311348A1 (LUDWIG MAXIMILIANS UNIVERSIT T M NCHEN, published 2018).
